Source: the supplement of paper PMC7877785
± gives the uncertainty stated by the source.

Assay: self-splicing fitness, log relative to wild type (ln ratio); higher = more splicing; Tetrahymena group I intron in knt gene, E. coli kanamycin selection, DiMSum; sequences stand for … in CUCUCU…GGAGGGAAAAGUUAUCAGGCAUGCACCUGGUAGCUAGUCUUUAAACCAAUAGAUUGCAUCGGUUUAAAAGGCAAGACCGUCAAAUUGCGGGAAAGGGGUCAACAGCCGUUCAGUACCAAGUCUCAGGGGAAACUUUGAGAUGGCCUUGCAAAGGGUAUGGUAAUAAGCUGACGGACAUGGUCCUAACCACGCAGCCAAGUCCUAAGUCAACAGAUCUUCUGUUGAUAUGGAUGCAGUUCACAGACUAAAUGUCGGUCGGGGAAGAUGUAUUCUUCUCAUAAGAUAUAGUCGGACCUCUCCUUAAUGGGAGCUAGCGGAUGAAGUGAUGCAACACUGGAGCCGCUGGGAACUAAUUUGUAUGCGAAAGUAUAUUGAUUAGUUUUGGAGUACUCGUGGUCG
In short: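 Library with all eight P1ex-region intron nucleotides randomised, intron inside the knt kanamycin-resistance gene on pET-22b(+), in E. coli BL21(DE3). Cells grew overnight at 37°C or 30°C on LB agar with or without 25 μg/mL kanamycin (plus 100 μg/mL carbenicillin, 50 μM IPTG, 0.2% rhamnose), in six replicate transformations. Pooled colonies were amplicon-sequenced on Illumina HiSeq 2500. DiMSum fitness is the error-weighted combination of wild-type-normalised replicate fold changes, kanamycin versus none.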

Sequence | self-splicing fitness (ln) (30 °C) | self-splicing fitness (ln) (37 °C)
CCCAAGCAAUAUUACGUGCG | -4.13 ± 0.21 | -2.28 ± 0.18
GAUCAGCAAUAUUACGGACU | -0.52 ± 0.12 | -0.894 ± 0.13
CUACAGCAAUAUUACGUCUA | -3.21 ± 0.24 | -3.04 ± 0.33
GUAAAGCAAUAUUACGUUCG | -0.724 ± 0.061 | -0.407 ± 0.084
AAAUAGCAAUAUUACGAGUA | -2.58 ± 0.19 | -1.09 ± 0.12
AUGUAGCAAUAUUACGUUAU | -2.41 ± 0.22 | -2.12 ± 0.22
ACAGAGCAAUAUUACGUAUU | -3.66 ± 0.23 | -2.84 ± 0.27
GAUAAGCAAUAUUACGCCAU | -2.79 ± 0.21 | -1.72 ± 0.17
UGGCAGCAAUAUUACGAAGA | -1.98 ± 0.2 | -1.41 ± 0.2
ACAGAGCAAUAUUACGGCUA | -3.1 ± 0.23 | -1.41 ± 0.14
GUAAAGCAAUAUUACGAUCG | -0.724 ± 0.075 | 0.373 ± 0.11
GAUCAGCAAUAUUACGAAGG | -2.62 ± 0.13 | -1.59 ± 0.14
AAUAAGCAAUAUUACGUGUC | -3 ± 0.14 | -0.777 ± 0.14
GGGGAGCAAUAUUACGCGGG | -2.7 ± 0.31 | -1.72 ± 0.39
CUCUAGCAAUAUUACGCCUC | -1.49 ± 0.3 | 
CCUGAGCAAUAUUACGUUGC | -2.07 ± 0.31 | -2.27 ± 0.43
AGGUAGCAAUAUUACGUGUG | -2.883 ± 0.016 | -1.88 ± 0.033
AUCAAGCAAUAUUACGGAGA | -2.57 ± 0.16 | -2.81 ± 0.24
GUUCAGCAAUAUUACGUAGA | -0.546 ± 0.1 | -0.394 ± 0.1
UCAUAGCAAUAUUACGUCCU | -3.7 ± 0.25 | -1.18 ± 0.14
AUCCAGCAAUAUUACGUGAU | -2.15 ± 0.1 | -1.04 ± 0.12
CUGAAGCAAUAUUACGCUAU | -3.68 ± 0.16 | -2.04 ± 0.14
GAUUAGCAAUAUUACGUCUA | -1.14 ± 0.095 | -0.229 ± 0.085
CCACAGCAAUAUUACGGUGU | -2.98 ± 0.12 | -3.03 ± 0.2
AGAAAGCAAUAUUACGCGAA | -1.95 ± 0.13 | -1.08 ± 0.16

Sequence | self-splicing fitness (ln) (30 °C) | self-splicing fitness (ln) (37 °C)
AUUAAGCAAUAUUACGUUAC | -2.99 ± 0.26 | -1.16 ± 0.27
CGAAAGCAAUAUUACGAUGU | -1.52 ± 0.074 | -1.15 ± 0.13
UCCAAGCAAUAUUACGCAUA | -1.07 ± 0.096 | -0.213 ± 0.087
GGCUAGCAAUAUUACGACUC | 0.93 ± 0.14 | 0.604 ± 0.26
UCGGAGCAAUAUUACGCUAC | -2.11 ± 0.34 | 
UAGUAGCAAUAUUACGUGGC |  | -2.59 ± 0.44
AAACAGCAAUAUUACGCUUA | -1.92 ± 0.087 | -0.649 ± 0.094
AUCUAGCAAUAUUACGUCGC | -3.06 ± 0.47 | -1.86 ± 0.49
GGCAAGCAAUAUUACGAACG | -0.449 ± 0.068 | -0.593 ± 0.061
CGCUAGCAAUAUUACGGAGC | -2.64 ± 0.2 | -1.84 ± 0.24
UGAUAGCAAUAUUACGCCCU | -0.0785 ± 0.15 | 0.0233 ± 0.21
AGAAAGCAAUAUUACGGUAC | -3.29 ± 0.32 | -1.67 ± 0.23
GCUGAGCAAUAUUACGCAGG | -1.66 ± 0.13 | -1.56 ± 0.15
AUACAGCAAUAUUACGCCUA | -1.1 ± 0.11 | -0.472 ± 0.12
AUAGAGCAAUAUUACGAGUG | -3.25 ± 0.21 | -0.0938 ± 0.18
GGCAAGCAAUAUUACGGCUG | -1.68 ± 0.1 | -0.318 ± 0.16
GAUCAGCAAUAUUACGCUGU | -3.03 ± 0.21 | -2.38 ± 0.16
CACUAGCAAUAUUACGUGCG | -2.13 ± 0.081 | -0.945 ± 0.082
GAGAAGCAAUAUUACGUUUA | -2.13 ± 0.12 | -0.99 ± 0.12
AUUCAGCAAUAUUACGCGUU | -0.912 ± 0.07 | -0.348 ± 0.081
GAUCAGCAAUAUUACGCACC | -0.91 ± 0.18 | -0.086 ± 0.23
GUGCAGCAAUAUUACGUCGC | -1.5 ± 0.28 | -0.148 ± 0.22
AAUCAGCAAUAUUACGACUC | -0.0136 ± 0.086 | 0.129 ± 0.11
UUUAAGCAAUAUUACGUUCG | -0.639 ± 0.093 | -0.169 ± 0.12
AACAAGCAAUAUUACGGUAA | -1.83 ± 0.1 | -1.04 ± 0.096

Sequence | self-splicing fitness (ln) (30 °C) | self-splicing fitness (ln) (37 °C)
ACAUAGCAAUAUUACGGUCU | -1.46 ± 0.071 | -0.428 ± 0.089
AUGCAGCAAUAUUACGAGCU | -0.624 ± 0.073 | -0.565 ± 0.088
GAGGAGCAAUAUUACGCAAU | -2.36 ± 0.36 | 
UCGUAGCAAUAUUACGAAUU | -3.74 ± 0.29 | -3.57 ± 0.46
CAGCAGCAAUAUUACGCAUA | -1.81 ± 0.14 | -1.43 ± 0.17
AUGUAGCAAUAUUACGUAAA | -2.25 ± 0.25 | -1.9 ± 0.26
GGACAGCAAUAUUACGGCUC | 0.0372 ± 0.08 | 0.377 ± 0.11
CCGCAGCAAUAUUACGUUCG | -0.778 ± 0.056 | -0.0727 ± 0.077
CCGCAGCAAUAUUACGGUUG | -2.18 ± 0.066 | -1.24 ± 0.085
GGUGAGCAAUAUUACGUCUG | -3.31 ± 0.17 | -2.03 ± 0.14
UAGGAGCAAUAUUACGUAUG | -3.04 ± 0.22 | -1.71 ± 0.16
AGGGAGCAAUAUUACGGGGG | -2.67 ± 0.2 | -3.03 ± 0.37
GUAAAGCAAUAUUACGGCCA | -0.497 ± 0.11 | 0.704 ± 0.17
CUUCAGCAAUAUUACGCAGU | -3.96 ± 0.43 | -2.9 ± 0.33
CCCAAGCAAUAUUACGUUUA | -3.62 ± 0.14 | -3.04 ± 0.18
UUGGAGCAAUAUUACGUCUA | -1.99 ± 0.34 | -2.49 ± 0.3
CAUUAGCAAUAUUACGCAAG | -1.45 ± 0.1 | -0.813 ± 0.13
AAAAAGCAAUAUUACGGGCU | -1.55 ± 0.074 | -1.24 ± 0.099
GGACAGCAAUAUUACGGGGU | -3.5 ± 0.17 | -2.17 ± 0.12
GCCUAGCAAUAUUACGGCGC | -0.67 ± 0.14 | 0.263 ± 0.18
GGGAAGCAAUAUUACGGUAU | -2.78 ± 0.18 | -1.63 ± 0.15
AUCGAGCAAUAUUACGAACU | -1.06 ± 0.17 | -0.725 ± 0.19
GGACAGCAAUAUUACGGCAC | -0.469 ± 0.12 | -0.25 ± 0.15
UGGAAGCAAUAUUACGGAGA | -2.7 ± 0.22 | -1.31 ± 0.13
UGGAAGCAAUAUUACGACGA | 0.0371 ± 0.18 | -0.862 ± 0.15

Sequence | self-splicing fitness (ln) (30 °C) | self-splicing fitness (ln) (37 °C)
UCGCAGCAAUAUUACGCCCG | -1.51 ± 0.35 | 
UGACAGCAAUAUUACGCGUG | -0.925 ± 0.066 | 0.0478 ± 0.08
CAGAAGCAAUAUUACGAGCG | -0.175 ± 0.068 | 0.538 ± 0.086
CAUCAGCAAUAUUACGGAUG | -4 ± 0.14 | -2.94 ± 0.14
AAUCAGCAAUAUUACGCUGG | -2.63 ± 0.099 | -2.87 ± 0.087
CAGCAGCAAUAUUACGUAGC | -4.02 ± 0.28 | -2.94 ± 0.26
AAUUAGCAAUAUUACGUUAC | -3.18 ± 0.15 | -1.74 ± 0.17
UAUGAGCAAUAUUACGCCGC | -1.9 ± 0.31 | -1.02 ± 0.42
ACUAAGCAAUAUUACGACCC | -1.08 ± 0.25 | -0.275 ± 0.32
UUUUAGCAAUAUUACGGCAA | 0.145 ± 0.12 | -0.398 ± 0.15
GUCAAGCAAUAUUACGCGGA | -2.98 ± 0.17 | -2.02 ± 0.16
GUUAAGCAAUAUUACGAUGC | -0.546 ± 0.18 | -0.241 ± 0.18
CCCCAGCAAUAUUACGCCCC | -2.98 ± 0.38 | 
CUCAAGCAAUAUUACGUGAU | -1.25 ± 0.053 | -0.372 ± 0.067
CGGUAGCAAUAUUACGUGGG | -3.79 ± 0.17 | -3.11 ± 0.14
ACCCAGCAAUAUUACGCGUU | -0.424 ± 0.049 | 0.328 ± 0.066
CCCUAGCAAUAUUACGGUUU | -3.31 ± 0.17 | -2.87 ± 0.17
AUGGAGCAAUAUUACGAAUA | -2.15 ± 0.34 | -1.08 ± 0.36
CAAAAGCAAUAUUACGCUAU | -2.78 ± 0.16 | -2.09 ± 0.19
UUUUAGCAAUAUUACGGAGU | -2.29 ± 0.33 | -1.95 ± 0.28
GUGCAGCAAUAUUACGAUGU | -0.56 ± 0.067 | -0.37 ± 0.073
UACGAGCAAUAUUACGUGCA | -3.16 ± 0.19 | -1.32 ± 0.13
